The values that follow come from paper PMC5234120, “Age-related macular degeneration associated polymorphism rs10490924 in ARMS2 results in deficiency of a complement activator” (Journal of Neuroinflammation, 2017).

The target in assay [1] is T1, properdin (human, UniProt P27918 28-469).
T1 construct: properdin (complement factor P), human; the oligomeric state of the purified protein was not measured here; also called purified properdin; source: bought: Complement Technologies (CompTech), purified; bought: TECOmedical GmbH (peptide ELISA); endogenous, normal human serum (NHS)
Briefly: BLI; BLITZ system; His-tagged ARMS2 loaded on Ni2+ NTA biosensors in PBS with 0.1% gelatin; properdin 70 to 1800 nM; 1:1 model. Particulars: both partners purified. (In general: BLI is a label-free optical method that tracks binding on a fibre tip over time.)

Assay [2] deals with T1, properdin. The assay can be described thus: ELISA; ARMS2 peptides 1, 2, 3 (each 500 nM) coated on the plate; 2 uM properdin (TECOmedical) in PBS; detected with monoclonal properdin antibody. Particulars: both partners purified. (ELISA stands for enzyme-linked immunosorbent assay.)

T1 sequence (P27918 28-469): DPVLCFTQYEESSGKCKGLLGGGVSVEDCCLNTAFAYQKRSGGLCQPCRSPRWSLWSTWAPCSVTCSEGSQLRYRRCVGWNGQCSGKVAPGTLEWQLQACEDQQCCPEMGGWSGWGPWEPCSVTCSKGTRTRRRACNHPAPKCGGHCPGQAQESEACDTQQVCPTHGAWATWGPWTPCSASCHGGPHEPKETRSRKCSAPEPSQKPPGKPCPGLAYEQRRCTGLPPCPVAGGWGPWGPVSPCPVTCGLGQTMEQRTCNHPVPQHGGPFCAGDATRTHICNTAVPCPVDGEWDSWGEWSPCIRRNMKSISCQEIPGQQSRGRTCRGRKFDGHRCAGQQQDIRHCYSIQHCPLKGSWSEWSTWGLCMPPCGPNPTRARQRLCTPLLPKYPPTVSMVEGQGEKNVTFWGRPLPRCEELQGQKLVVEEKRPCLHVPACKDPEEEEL

B1: recombinant ARMS2 (age-related maculopathy susceptibility 2) (natural protein, human, UniProt P0C7Q2 1-107, looked up)
chain: MLRLYPGPMVTEAEGKGGPEMASLSSSVVPVSFISTLRESVLDPGVGGEGASDKQRSKLSLSHSMIPAAKIHTELCLPAFFSPAGTQRRFQQPQHHLTLSIIHTAAR
notes: ARMS2, human, codon usage optimized full length cDNA; Glycosylated in P. pastoris (17 and 15 kDa bands); also called His-tagged ARMS2; rARMS2
B1 showed a Kd with properdin [1] of 500 nM.

B2: ARMS2 peptide 3 (amino acids 71 to 107) (peptide)
peptide: IHTELCLPAFFSPAGTQRRFQQPQHHLTLSIIHTAAR
notes: ARMS2, human, amino acids 71 to 107; also called C-terminal peptide 3 of ARMS2; source: peptide generated by Jerini Peptide Biotechnologies
As to B2, the binding result in the assay with properdin [2] was “binds”.

As usually defined, the Kd is the free concentration of one partner at which half of the binding sites on the other are occupied at equilibrium, for simple one-to-one binding.
